Results reported in the supplement of paper PMC10899765.

What was measured:
Details in all cases: 20 nM; 72 h
MCF10A [1] = experiment: percent viability (nuclei count relative to siNT); higher = more viable cells
Method: (§1)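 After 72 h, cells were fixed and stained with Hoechst and anti-fibrillarin, and nucleoli per nucleus were counted with CellProfiler. Values are plate-adjusted percent effect for the one-nucleolus and 5+ nucleoli phenotypes, normalised to siNT (0%) and to the positive controls siNOL11 or siKIF11 (100%), as the mean of biological triplicates. Percent viability is the nuclei count relative to siNT.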

MCF10A [2] = experiment: 5+ nucleoli phenotype percent effect (relative to siNT 0% and siKIF11 100%); higher = more cells with five or more nucleoli
Method: as §1

MCF10A [3] = experiment: nucleolar rRNA biogenesis percent inhibition (5-EU; siNT 0%, siPOLR1A 100%); higher = stronger inhibition of nucleolar rRNA biogenesis
Method: (§2)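 Primary screen hits (microRNA mimics) were re-picked and rescreened for nucleolar number in MCF10A cells (hitpick validation; percent effect relative to the siNT and siNOL11/siKIF11 controls). A secondary screen measured nucleolar rRNA biogenesis inhibition: after 72 h of transfection at 20 nM, cells were labelled 1 h with 1 mM 5-EU and nucleolar 5-EU signal was quantified, normalised to siNT (0%) and siPOLR1A (100%). Means are over n=5 (MCF10A) or n=2 (RPE-1, HeLa) biological replicates.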

MCF10A [4] = experiment: one-nucleolus phenotype percent effect, hitpick validation (relative to siNT 0% and siNOL11 100%); higher = more cells with one nucleolus
Method: as §2

MCF10A [5] = experiment: 5+ nucleoli phenotype percent effect, hitpick validation (relative to siNT 0% and siKIF11 100%); higher = more cells with five or more nucleoli
Method: as §2

MCF10A [6] = experiment: one-nucleolus phenotype percent effect (relative to siNT 0% and siNOL11 100%); higher = more cells with one nucleolus (ribosome biogenesis inhibition)
Method: as §1

| Sequence | percent viability (MCF10A [1]) | 5+ nucleoli phenotype percent effect (MCF10A [2]) | nucleolar rRNA biogenesis percent inhibition (MCF10A [3]) | one-nucleolus phenotype percent effect (MCF10A [4]) | 5+ nucleoli phenotype percent effect (MCF10A [5]) | one-nucleolus phenotype percent effect (MCF10A [6]) |
| --- | --- | --- | --- | --- | --- | --- |
| UGGUCUGCAAAGAGAUGACUGU [hsa-miR-4527] | 12.3% | -39.4% | 67.3% | 151% | -1.79% | 104% |
| UAGGAGCUCAACAGAUGCCUGUU [hsa-miR-3139] | 18.8% | -23.5% | 5.86% | 181% | -8.78% | 84.1% |
| CAAAGUUUAAGAUCCUUGAAGU [hsa-miR-561-3p] | 182% | 23.4% |  |  |  | -26.2% |
| GGUUCCCUCUCCAAAUGUGUCU [hsa-miR-642b-5p] | 44.4% | 21.2% |  |  |  | 11.8% |
| UGGUGGAGGAAGAGGGCAGCUC [hsa-miR-6880-5p] | 3.74% | -19.7% |  |  |  | -4.17% |
| CGCAGGGCCCUGGCGCAGGCAU [hsa-miR-6836-5p] | 37.7% | -6.59% |  |  |  | 28.5% |
| AAACACCAUUGUCACACUCCAC [hsa-miR-3591-3p] | 27.5% | -27% |  |  |  | 32.5% |
| AUCUGUAAGAGAAAGUAAAUGA [hsa-miR-3686] | 48.4% | 21.5% |  |  |  | -0.187% |
| GCCUGGAGCUACUCCACCAUCUC [hsa-miR-4254] | 26.1% | 11.1% |  |  |  | 7% |
| CAGGCAGAAGUGGGGCUGACAGG [hsa-miR-6511a-5p] | 69.3% | 3.66% |  |  |  | 6.88% |
| UCCCUUGUCUCCUUUCCCUAG [hsa-miR-6780b-3p] | 68.9% | 32.5% |  |  |  | -21.9% |
| GCCGGACAAGAGGGAGG [hsa-miR-4442] | 96% | 25.4% |  |  |  | -19.9% |
| ACUGGGAAGAGGAGCUGAGGGA [hsa-miR-4646-5p] | 35% | -6.37% |  |  |  | 21.9% |
| UAACCCUGUCCUCUCCCUCCCAG [hsa-miR-6732-3p] | 36.4% | 1.9% |  |  |  | -9.42% |
| CCCGCAGGUGAGAUGAGGGCU [hsa-miR-6886-5p] | 28.8% | -23.1% |  |  |  | 9.43% |
| ACUGGGGGCUUUCGGGCUCUGCGU [hsa-miR-637] | 22.7% | -19.4% |  |  |  | 50.5% |
| UCUGGCUCCGUGUCUUCACUCCC [hsa-miR-149-5p] | 32.7% | -2.69% |  |  |  | 30.7% |
| CAGUGCAAUGUUUUCCUU [hsa-miR-4295] | 78.5% | 97.9% |  |  |  | -33% |
| UGGAAUGUAAGGAAGUGUGUGG [hsa-miR-206] | 48.8% | -23.7% |  |  |  | 48.4% |
| AACAUAGAGGAAAUUCCACGU [hsa-miR-376c-3p] | 99.8% | 55.4% |  |  |  | -18.9% |
| AGCUGUCUGAAAAUGUCUU [hsa-miR-626] | 50.2% | 25.1% |  |  |  | 2.9% |
| CACCAUGGACGGUUUACC [hsa-miR-7153-3p] | 23.4% | -48.4% |  |  |  | 62.9% |
| UGAGAACUGAAUUCCAUAGGCU [hsa-miR-146b-5p] | 52.1% | -25.8% |  |  |  | 0.774% |
| UCUGUAGCCUGGGAGCAAUGGGGU [hsa-miR-3137] | 13.2% | -20.3% |  |  |  | 24% |
| UGGCGAUUUUGGAACUCAAUGGCA [hsa-miR-8053] | 36.7% | 6.04% |  |  |  | 4.42% |
| AACUGGAUCAAUUAUAGGAGUG [hsa-miR-1243] | 174% | 53.3% |  |  |  | -29.3% |
| CAAUUUAGUGUGUGUGAUAUUU [hsa-miR-32-3p] | 80.6% | 35.1% |  |  |  | -22.3% |
| GUGAGUGGGAGCCCCAGUGUGUG [hsa-miR-1238-5p] | 95.1% | 22.1% |  |  |  | -21.4% |

| Sequence | percent viability (MCF10A [1]) | 5+ nucleoli phenotype percent effect (MCF10A [2]) | nucleolar rRNA biogenesis percent inhibition (MCF10A [3]) | one-nucleolus phenotype percent effect (MCF10A [4]) | 5+ nucleoli phenotype percent effect (MCF10A [5]) | one-nucleolus phenotype percent effect (MCF10A [6]) |
| --- | --- | --- | --- | --- | --- | --- |
| UAGUACUGUGCAUAUCAUCUAU [hsa-miR-1278] | 73.4% | -12.8% |  |  |  | -1.62% |
| UCUUGGAGUAGGUCAUUGGGUGG [hsa-miR-432-5p] | 34.1% | -33.5% |  |  |  | 28.2% |
| UAACAGUCUCCAGUCACGGCC [hsa-miR-212-3p] | 219% | 29.7% |  |  |  | -19.5% |
| CAAGUCACUAGUGGUUCCGUU [hsa-miR-224-5p] | 38.7% | -41% |  |  |  | 15.4% |
| AGGGGGCGCAGUCACUGACGUG [hsa-miR-4697-5p] | 18.2% | -0.0636% |  |  |  | 5.16% |
| CCUCCCAUGCCAAGAACUCCC [hsa-miR-2116-3p] | 95.6% | 58.4% |  |  |  | -24.7% |
| AUGGAGCUGGAACCAGAUCAGGC [hsa-miR-6874-5p] | 30.7% | -35.8% |  |  |  | 41.9% |
| UUAGAACGUUUUAGGGUCAAAU [hsa-miR-5687] | 50.5% | 16.2% |  |  |  | -12.4% |
| GCUGAUGAUGAUGGUGCUGAAG [hsa-miR-4502] | 85.3% | 38.7% |  |  |  | -19.2% |
| ACAGCAGGCACAGACAGGCAGU [hsa-miR-214-3p] | 19.3% | -1.88% |  |  |  | 13.3% |
| CUUUCAGUCAGAUGUUUGCUGC [hsa-miR-30d-3p] | 131% | 59.2% |  |  |  | -17.5% |
| CAUUACAGCACAGCCAUUCU [hsa-miR-6504-3p] | 47.5% | -25.6% |  |  |  | 2.85% |
| CGCAGACAAUGCCUACUGGCCUA [hsa-miR-3166] | 21.3% | -21.5% |  |  |  | 6.38% |
| AGGGGUGCUAUCUGUGAUUGA [hsa-miR-342-5p] | 10.5% | -43.4% |  |  |  | 15.1% |
| ACUGCUGAGCUAGCACUUCCCG [hsa-miR-93-3p] | 33.2% | -7.82% |  |  |  | 0.758% |
| CUGGGAGAAGAGUGGUGAAGA [hsa-miR-6788-5p] | 24.9% | -4.55% |  |  |  | 10% |
| CAAAUGGACAGGAUAACACCU [hsa-miR-4694-3p] | 35.9% | -11.7% |  |  |  | 11.8% |
| UGGUGCGGAGAGGGCCCACAGUG [hsa-miR-675-5p] | 39% | -14% |  |  |  | 29.5% |
| CACCGGGGAUGGCAGAGGGUCG [hsa-miR-4655-5p] | 16.1% | 15% |  |  |  | 24.6% |
| AGCAGAGGCAGAGAGGCUCAGG [hsa-miR-2467-3p] | 4.65% | -24.4% |  |  |  | 26.3% |
| UCCAGCAUCAGUGAUUUUGUUG [hsa-miR-338-3p] | 98.2% | 26.3% |  |  |  | -13.2% |
| CCCUCUCUGUCCCACCCAUAG [hsa-miR-6769b-3p] | 73.7% | 91.5% |  |  |  | -27.6% |
| UUAACUCCUUUCACACCCAUGG [hsa-miR-4764-3p] | 91.4% | 15.3% |  |  |  | -18% |
| CCAGUAUUAACUGUGCUGCUGA [hsa-miR-16-1-3p] | 85.1% | -19.3% |  |  |  | 7.96% |
| GACAAUUGUUGAUCUUGGGCCU [hsa-miR-7849-3p] | 74.7% | -19.1% |  |  |  | 8.55% |
| GUGAGUCUCUAAGAAAAGAGGA [hsa-miR-627] | 62.9% | 7.75% |  |  |  | -10.4% |
| UCUGACAUCAGUGAUUCUCCUG [hsa-miR-6719-3p] | 115% | 20.2% |  |  |  | -5.44% |
